# In patent publication US8969026B2, “Polymeric reverse micelles as selective extraction agents and related methods of MALDI-MS analysis” (University of Massachusetts, priority 2007, dated 2015):
# Legend:
# [1] = fluorescent pI markers, cited from earlier work; for Pka: second pKa column
# [2] = Inverse micelle (polymer 1) extraction of a myoglobin tryptic digest at pH 7.1, MALDI-MS; assay type: physicochemical; settings: myoglobin tryptic digest 1 μM, polymer 1 in toluene, K = Iorg/Iaq, [M+H]+, 3 replicates
# Excerpt: All of the peptides with pI values above 7.1 are extracted effectively, and with only one exception, peptides with pI values below 7.1 are not extracted effectively. Among the peptide fragments tested, the only exception is the peptide N140-G153 (m/z 1553), a peptide fragment that has a pI below 7.1 and still has K>1. […] One of two reasons could explain the observed results: First, because the pH of the solution is so close to the pI of this peptide, a significant fraction of the peptide is positively-charged at pH 7.1 and therefore extracted. Alternatively, the theoretically calculated pI value may be low.
# (§1) A typical biphasic extraction procedure involves mixing 200 μL of a toluene solution of homopolymer 1 or 2 (1×10^−4 M) with 1 mL of an aqueous solution of peptide(s) that was buffered to pH ˜7.0 with 50 mM Tris/TrisHCl. The mixture is vortexed for 10 to 120 minutes and centrifuged at 12000 rpm for 30-40 minutes to break the resulting emulsion and separate the organic and aqueous layers. The top (organic) layer is then recovered and dried to obtain a solid residue. The residue is redissolved into 10 μL of THF and sonicated for 10 seconds to promote solubilization. Finally, 20 μL of an α-CHCA matrix solution (0.16 Min 60:40:0.3% THF:H2O:TFA) are added to the sample for a final volume of 30 μL. For MALDI-MS analysis the samples are applied to the target using the dried-droplet method, where 1 μL of the sample/matrix mixture is spotted on a stainless-steel target, and the solvent is evaporated at room temperature. The residual aqueous phase (˜1 mL) after extraction is also examined by MALDI-MS. Equal amounts (5 μL) of the aqueous phase and the matrix solution (0.16 M α-CHCA in 60:40:0.3% THF:H2O:TFA) are mixed, and 1 μL of the resulting solution is spotted, using the dried droplet method, on a stainless-steel target for MALDI-MS analysis.
# Extraction of the myoglobin digest was done in a manner similar to described above. 1 mL aliquots of a 1×10^−6 M protein digest were buffered at pH 7.1 with 50 mM TRIS, mixed with 200 μL of a toluene solution of homopolymer 1 (1×10^−4 M), extracted, and analyzed by MALDI-MS as detailed above.
# Proteolytic digestion. For the myoglobin tryptic digests, 110 μl of protein solution (˜3×10^−4 M in 50 mM TRIS buffer) were mixed with 40 μL of MeOH. The mixture was heated at 60° C. for 10 minutes to denature the protein. 150 μL of a trypsin solution, which contained 2 μg/450 μL of protein, 50 mM TRIS buffer, and 1 mM CaCl2, was added to the denatured protein sample, and the mixture was left to digest at 37° C. for 24 hours. The digestion was stopped by filtering the solution through a 10K MWCO Centricon filter. The filtrates were diluted to the desired concentration and used for extraction and analysis.
# [3] = pH-dependent biphasic extraction of a peptide mixture with inverse micelles of polymer 1 in toluene, MALDI-MS ion abundance ratio; assay type: physicochemical; settings: polymer 1 inverse micelles in toluene, K = Iorg/Iaq, [M+H]+ signal, [M+K]+ for spinorphin and β-amyloid, at least 4 replicates; for Ion abundance ratio (K ± sM) pH 4.0: aqueous pH 4.0; for Ion abundance ratio (K ± sM) pH 7.1: aqueous pH 7.1; for Ion abundance ratio (K ± sM) pH 9.0: aqueous pH 9.0
# Excerpt: The net charge within the inverse micelle of 1 is negative, affording a selective extraction of positively-charged peptides. In a typical experiment, a toluene solution containing 1 was mixed with an aqueous solution containing a mixture of peptides. After vortexing this mixture, the organic layer was separated and analyzed using MALDI-MS. […] Because the aqueous solution was buffered at a pH of 7.1, peptides with pI values above 7.1 were expected to be sequestered into the interior of the inverse micelles, while peptides with pI values below 7.1 would be mostly excluded based on Coulombic repulsion.
# The ion abundance ratio is related to the extraction capacity of the polymer, and can be defined as the ratio of the MALDI ion abundance of the peptide in the organic phase that contains the inverse micelles (Iorg) to the ion abundance of the peptide remaining in the aqueous phase (Iaq) (K=Iorg/Iaq). These experiments were performed with the hypothesis that the extraction would be based on electrostatic interaction between the polymer and the peptide. To test this premise further, two control experiments were carried out. […] Therefore, a two-phase extraction experiment was done in the absence of homopolymer 1, and no peptide extraction into the organic phase was observed. Second, peptide extractions using a polymer without the negatively-charged functionality were performed. Polymer 2 contains charge-neutral pentaethyleneglycol functionalities instead of the carboxylic acid moieties. […] These two results are consistent with the hypothesis that the extraction is based on electrostatics.
# Without limitation to any one theory or mode of operation, the pH of the overall aqueous solution is also likely to dictate the pH of the hydrated interiors of the inverse micelle where the binding takes place. Accordingly, extractions at three different pHs: 4.0, 7.1, and 9.0 were carried out; the results of these experiments are listed in Table 1. […] The results from experiments at pH 7.1 and 9.0 further support this idea. It should be noted that when the experiment is carried out at pH 9.0, the peptide with a pI of 7.7 is extracted to some extent. Such a result could be attributed to errors associated with aqueous solution pH measuring or to errors in the peptide pI calculation. Nonetheless, the tunability is still significant and therefore is a very useful result.
# A Bruker Reflex III time-of-flight mass spectrometer was used to perform MALDI-MS analysis. The mass spectrometer is equipped with a 337-nm nitrogen laser, a 1.0 m flight tube, and a stainless steel sample target. All mass spectra were acquired in reflectron mode using a voltage of 16 kV. All reported spectra represent an average of 70 shots acquired at 30% laser power. The accelerating voltage was set to 20 kV.
# as §1, with “Equal amounts (5 μL) of the aqueous phase and the matrix solution (0.16 M α-CHCA in 60:40:0.3% THF:H2O:TFA) are mixed, and 1 μL of the resulting solution is spotted, using the dried droplet method, on a stainless-steel target for MALDI-MS analysis.” left out
compound,measurement,setting,value
Nc1ccccc1C(=O)NCCCCCC(=O)O [pI marker 3],pI,[1],4.0
O=C(NCCN1CCOCC1)c1cc2ccccc2c(Br)c1O [pI marker 5],Pka1,[1],5.35
same,pI,[1],6.2
same,Pka,[1],6.95
O=C(NCCN1CCOCC1)c1cc2ccccc2cc1O [pI marker 6],Pka1,[1],6.20
same,pI,[1],7.2
same,Pka,[1],8.10
NCCCN1CCN(CCCNC(=O)c2cc3ccccc3cc2O)CC1 [pI marker 8],Pka1,[1],8.05
same,pI,[1],9.0
same,Pka,[1],9.85
NCCCCCCNCCCCCCNC(=O)c1cc2ccccc2cc1O [pI marker 9],Pka1,[1],9.95
same,pI,[1],10.3
same,Pka,[1],10.65
ALELFRNDIAAK [tryptic fragment of equine myoglobin],Ion abundance ratio (K ± sM),[2],0.7 ± 0.1
ASEDLKKHGTVVLTALGGILK (listed as Equus caballus) [tryptic fragment of equine myoglobin],Ion abundance ratio (K ± sM),[2],36 ± 4
GHHEAELKPLAQSHATK (listed as Equus caballus) [tryptic fragment of equine myoglobin],Ion abundance ratio (K ± sM),[2],425 ± 61
GLSDGEWQQVLNVWGK (listed as Equus caballus) [tryptic fragment of equine myoglobin],Ion abundance ratio (K ± sM),[2],0.3 ± 0.1
HGTVVLTALGGILK (listed as Equus caballus) [tryptic fragment of equine myoglobin],Ion abundance ratio (K ± sM),[2],32 ± 5
HGTVVLTALGGILKK (listed as Equus caballus) [tryptic fragment of equine myoglobin],Ion abundance ratio (K ± sM),[2],51 ± 10
HPGDFGADAQGAMTK (listed as Equus caballus) [tryptic fragment of equine myoglobin],Ion abundance ratio (K ± sM),[2],0.05 ± 0.004
"IARRHPYFL (listed as Homo sapiens) [Kinetensin, human peptide purchased from American Peptide Company]",Ion abundance ratio (K ± sM) pH 4.0,[3],337 ± 79
same,Ion abundance ratio (K ± sM) pH 7.1,[3],882 ± 212
same,Ion abundance ratio (K ± sM) pH 9.0,[3],616 ± 198
KGHHEAELKPLAQSHATK (listed as Equus caballus) [tryptic fragment of equine myoglobin],Ion abundance ratio (K ± sM),[2],310 ± 0.2
KHGTVVLTALGGILK (listed as Equus caballus) [tryptic fragment of equine myoglobin],Ion abundance ratio (K ± sM),[2],51 ± 10
KKGHHEAELKPLAQSHATK (listed as Equus caballus) [tryptic fragment of equine myoglobin],Ion abundance ratio (K ± sM),[2],140 ± 12
LFTGHPETLEK (listed as Equus caballus) [tryptic fragment of equine myoglobin],Ion abundance ratio (K ± sM),[2],0.02 ± 0.02
LFTGHPETLEKFDKFK (listed as Equus caballus) [tryptic fragment of equine myoglobin],Ion abundance ratio (K ± sM),[2],41 ± 6
NDIAAKYKELGFQG (NDLAAKYKELGFQG; listed as Equus caballus) [tryptic fragment of equine myoglobin],Ion abundance ratio (K ± sM),[2],1.4 ± 0.4
same,Ion abundance ratio (K ± sM),[2]; listed as N140-G153,1.4
S YSMEHFRWGKPV [ACTH Human],Ion abundance ratio (K ± sM) pH 4.0,[3],221 ± 37
same,Ion abundance ratio (K ± sM) pH 7.1,[3],422 ± 87
same,Ion abundance ratio (K ± sM) pH 9.0,[3],128 ± 41
VEADIAGHGQEVLIR (listed as Equus caballus) [tryptic fragment of equine myoglobin],Ion abundance ratio (K ± sM),[2],0.3 ± 0.04
YKELGFQG (listed as Equus caballus) [tryptic fragment of equine myoglobin],Ion abundance ratio (K ± sM),[2],0.01 ± 0.001
YLEFISDAIIHVLHSK (listed as Equus caballus) [tryptic fragment of equine myoglobin],Ion abundance ratio (K ± sM),[2],0.0
